In PMC9036094, “Antigen-derived peptides engage the ER stress sensor IRE1α to curb dendritic cell cross-presentation” (The Journal of Cell Biology, 2022):

Experiments:
[1] = system: PERK (ATF4, CHOP) in BMDCs; experiment: PERK activation in BMDCs (immunoblot of ATF4 and CHOP); type: cell-based, mouse; settings: MG132 5 μM or ovalbumin 500 μg/ml, in words
Protocol: (§1) Figure S1. Antigen pulsing of BMDCs activates IRE1α. (A) BMDCs were treated with MG132 (5 μM) or ovalbumin (500 μg/ml) for indicated time points and analyzed by IB. (B) BMDCs were pulsed with ovalbumin (500 μg/ml) and G9668 (3 μM) for indicated time periods and analyzed by IB. (C) Molecular structure, potency, and kinase selectivity of G9668. (D) Schematic representation of G9668 interaction with 220 kinases at 1 μM. Size and color of circles represent interaction strength. Analysis was conducted by KinomeScan. (E) BMDCs were pulsed for 4 h with APC-tagged ovalbumin or soluble CD4-Fc protein (500 μg/ml) with amiloride (10 μM); uptake of protein was assayed by flow cytometry (n = 3). (F) WT or MyD88 KO Flt3L-derived BMDCs were pulsed with ovalbumin (500 μg/ml) or soluble CD4-Fc protein (500 μg/ml), or treated with LPS (10 μg/ml) for 4 h and analyzed by IB. (G) MEFs and BMDCs were pulsed with ovalbumin or treated with Tg (100 nM) for 4 h and analyzed by IB. Images in A, B, F, and G represent at least two similar experiments, and molecular weights represent kD; E bar graphs represent mean ± SD from three independent biological repeats. Analysis for E was performed using unpaired, two-tailed t test; *, P ≤ 0.05; **, P ≤ 0.01. Source data are available for this figure: SourceData FS1. […]

[2] = system: IRE1α in MyD88 KO Flt3L-derived BMDCs; experiment: IRE1α activation in MyD88 KO Flt3L-derived BMDCs (immunoblot); type: cell-based, mouse; settings: ovalbumin 500 μg/ml or LPS 10 μg/ml, 4 h
Protocol: as §1

B1: ovalbumin: classical protein antigen ovalbumin (Sigma-Aldrich) (protein)
chain: MGSIGAASMEFCFDVFKELKVHHANENIFYCPIAIMSALAMVYLGAKDSTRTQINKVVRFDKLPGFGDSIEAQCGTSVNVHSSLRDILNQITKPNDVYSFSLASRLYAEERYPILPEYLQCVKELYRGGLEPINFQTAADQARELINSWVESQTNGIIRNVLQPSSVDSQTAMVLVNAIVFKGLWEKAFKDEDTQAMPFRVTEQESKPVQMMYQIGLFRVASMASEKMKILELPFASGTMSMLVLLPDEVSGLEQLESIINFEKLTEWTSSNVMEERKIKVYLPRMKMEEKYNLTSVLMAMGITDVFSSSANLSGISSAESLKISQAVHAAHAEINEAGREVVGSAEAGVDAASVSEEFRADHPFLFCIKHIATNAVLFFGRCVSP
In the case of B1, the PERK activation [1] is reported as “did not show a measurable response” and the “IRE1α activation, MyD88 KO BMDCs” value [2] is reported as “unimpeded IRE1α stimulation”.
